Assay results from US11254722B2, “Recombinant proteins and uses thereof” (ACADEMIA SINICA, priority 2017, dated 2022).

What was measured:
[1] = test system: HUVEC cells; test: HUVEC proliferation assay; format: cell-based; settings: HGF-induced, HUVEC
Outline: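 HUVEC, 5,000 per well, plated on poly-L-lysine in M199 with 1% FBS and HEPES. After 3 to 4 days of culture, growth read by Alamar blue incubation for 4 to 6 hours, fluorescence (RFU) at 544/590 nm.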

[2] = test system: cancer cells; test: In vitro proliferation of cancer cells stimulated by growth factors (Table 8); format: cell-based
Experimental: (§1) For the proliferation assay, cells except for HUVEC were seeded at a density of 1,000 to 6,000 in 96 wells in an assay buffer of DMEM/F12 plus 0.2% BSA and 10 ug/ml transferrin. Chemical inhibitors were added after 16-20 hours after plating; IGF-1 or other growth factors or test chimeras in assay buffer were added at the time of plating or 16-20 hours after plating. 5,000 HUVEC ells were plated in poly-L-lysine coated 96 wells in M199 with 1%/FBS and HEPES. After 3 to 4 days of culture, growth was determined by incubating cells with Alamar blue for 4 to 6 hours and then the fluorescence (RFU) at 544/590 nm was read. For long term proliferation assays, cells were plated in the growth media with 5% or 10% FBS at densities of 500 to 10,000 cells per cm^2 growth area and grown for 7 to 21 days. Inhibitors and effectors were added 1-4 days after plating. Cells were exposed to cisplatin or gemcitabine for two days. Medium was renewed twice weekly. At completion, cells were fixed and then stained with Giemsa.
The BP3-fc construct inhibited the proliferation of cancer cells that had been stimulated by IGF-1, IGF-2, neuregulin, HGF, and bFGF.

[3] = test system: 3t3; test: 3t3 proliferation assay; format: cell-based; settings: PDGF-AB-induced
Experimental: MCF-7 cells (a breast cancer cell line) were maintained in MEM (GIBCO) plus insulin and NEAA and 10% FBS (Hyclone).
as §1

[4] = biological target: T1, nrgEGF (amino acids Thr176-Lys246 of neuregulin-beta 1) (Homo sapiens, UniProt Q02297); test: Biacore binding to nrgEGF
T1 construct: Thr176-Lys246 of neuregulin-beta 1; purchased R&D Sciences or SinoBiologicals
T1 sequence (Q02297 176-246 isoform Q02297-6): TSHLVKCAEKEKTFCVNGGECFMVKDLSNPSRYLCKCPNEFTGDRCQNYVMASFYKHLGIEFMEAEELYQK
Experimental: (§2) Biacore binding was performed at David Myszka's laboratory at the University of Utah or at the Genomic Research Center at Academia Sinica. Surfaces of binding protein chimera were made via chemical immobilization on a CM4 chip using standard amine coupling chemistry. […] Excess surface carboxyl activated sites on all four flow cells was blocked using the doubly positively charged species ethylenediamine. Binding experiments (but not immobilizations) in HBS-P (10 mM HEPES pH 7.4, 150 mM NaCl, 0.05% P20), The HBS-P was supplemented with BSA at 0.2 mg/mL, or HBS-P was supplemented with 500 mM NaCl (650 mM NaCl, final concentration). Analytes were also reconstituted in the corresponding buffer. All experiments were performed at 25° C. 1/150 dilutions of phosphoric acid were used to regenerate IGFBP3-Fc surfaces and a sequence of 3 M MgCl2 followed by 5 M GuCl was used to regenerate surfaces immobilized with growth factor. Dissociation constants reported below used immobilized binding protein unless noted. Differences between binding constants may be expected between growth factor immobilization and chimera immobilization.
(§3) In this example, erbB4 domain 1 was attached to the N-terminus of the recombinant IGFBP3-Fc or the recombinant IGFBP3-v1v2-Fc.

[5] = biological target: T2, PIGF (Homo sapiens, UniProt P49763); test: In vitro proliferation stimulated by PIGF (Table 8); format: cell-based
T2 construct: purchased R&D Sciences or SinoBiologicals
T2 sequence (P49763 19-221): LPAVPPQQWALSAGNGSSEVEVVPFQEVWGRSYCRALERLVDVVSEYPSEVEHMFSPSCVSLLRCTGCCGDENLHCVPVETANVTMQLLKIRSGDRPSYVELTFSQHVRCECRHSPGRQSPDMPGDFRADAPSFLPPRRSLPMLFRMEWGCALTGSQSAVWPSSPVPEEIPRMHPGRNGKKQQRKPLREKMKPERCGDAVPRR
Experimental: as §1
(§4) The BP3-VEGF-trap-fc (including the IGFBP3 domains, the VEGFR1 domain 2 and VEGFR2 domain 3 (VEGF-trap (22)), and human immunoglobulin Fc region) broadened the binding to include VEGF-A, VEGF-B, and placental growth factor (PIGF). This BP3-VEGF-trap chimera could inhibit the proliferation stimulated by IGF-1, IGF-2, neuregulin, PDGF-BB, HGF, bFGF, VEGF-A, and PIGF (see, Table 8).

[6] = biological target: T3, EGF (Homo sapiens, UniProt P01133); test: Binding to EGF
T3 construct: purchased R&D Sciences or SinoBiologicals
T3 sequence (P01133 971-1023 limits assumed): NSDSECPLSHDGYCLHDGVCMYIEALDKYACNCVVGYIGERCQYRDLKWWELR
Excerpt: Table 3 lists the correlation between the IGFBP3 growth factor binding as determined by the inhibition of the proliferation by 56662. The observed inhibitory effects may derive from the growth factor sequestration, and/or IGFBP3 independent effects.

[7] = biological target: T4, VEGF (Homo sapiens, UniProt P15692); test: In vitro proliferation stimulated by VEGF (Table 8); format: cell-based
T4 construct: purchased R&D Systems
T4 sequence (P15692 27-191 isoform P15692-4): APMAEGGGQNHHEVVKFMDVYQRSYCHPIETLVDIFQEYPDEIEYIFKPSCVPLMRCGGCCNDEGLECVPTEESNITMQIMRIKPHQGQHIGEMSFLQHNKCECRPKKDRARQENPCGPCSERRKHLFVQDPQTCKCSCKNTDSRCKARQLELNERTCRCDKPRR
Experimental: as §1, §4

[8] = biological target: T5, nrgECD (amino acids Ser2-Lys246 of neuregulin beta 1) (Homo sapiens, UniProt Q02297); test: Biacore binding to nrgECD; settings: immobilized nrgECD
T5 construct: Ser2-Lys246 of neuregulin beta 1; purchased R&D Sciences or SinoBiologicals
T5 sequence (Q02297 2-246 isoform Q02297-6): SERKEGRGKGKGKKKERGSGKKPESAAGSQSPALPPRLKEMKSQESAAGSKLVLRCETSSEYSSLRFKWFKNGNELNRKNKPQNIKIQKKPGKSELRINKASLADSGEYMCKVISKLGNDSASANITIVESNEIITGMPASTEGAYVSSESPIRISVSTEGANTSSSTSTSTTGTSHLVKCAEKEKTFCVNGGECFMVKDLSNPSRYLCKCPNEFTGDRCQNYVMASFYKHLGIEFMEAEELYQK
Experimental: as §2, §3

Substance: 56662: IGFBP3-Fc, SEQ ID NO: 7; unmodified IGFBP3 fused with the IgG Fc portion [compound 56662]
- In vitro inhibition of proliferation, HGF [1]: yes (hep3B, HUVEC)
- inhibition of proliferation stimulated by bFGF [2]: inh
- In vitro inhibition of proliferation, PDGF-AB [3]: yes (3t3)
- Kd nrgEGF [4]: No binding
- inhibition of proliferation stimulated by PIGF [5]: no
- binding to EGF [6]: did not bind
- inhibition of proliferation stimulated by VEGF [7]: no
- Kd [8]: 5.3 nM
